Source: patent US20160235871A1, “Spect Radionuclide-labeled Trimeric Cycle RGD Peptide, Preparation Method Thereof and Imaging Method Thereof” (Bailing Cloud Biomedical Technologies Innovation, priority 2015, published 2016)
Where two headings read alike, the source gives them in different places.

Experiments:
[1] = Biodistribution in U87MG glioma nude mice; type: in vivo; settings: female, athymic nu/nu nude, mouse, in vivo, iv, 3 uCi, total radioactivity
Procedure: (§1) U87MG cells are purchased from US ATCC (Manassas, Va.). Cell culture conditions: […] […] 7 random U87MG glioma nude mice (20-25 g) are selected. […] After 60 minutes, a great amount of sodium pentobarbital is injected for executing the mice. Blood samples are collected from the mouse hearts. Tumor, normal organs (brain, eyes, heart, spleen, lung, liver, kidney, muscle and intestine) and tumor tissues are collected and washed by saline. Then they are dried by absorbent tissue, weighed by Perkin Elmer Wizard 1480 γ counter (Shelton, Conn.). The organ intake is measured by the percentage of the injection dose per gram of the tissue (% ID/g).

[2] = system: U87MG glioma; test: Biodistribution in U87MG glioma nude mice; type: in vivo
Procedure: as §1

[3] = normal mice, research period over 2 hours
Procedure: X. Normal mice (n=2) are selected for the metabolism research of the stability of ^99mmTc-4P-RGD3 in vivo, Each animal is injected with about 10 MBq of ^99mTc-4P-RGD3. The bladders are squeezed manually after 30 minutes and 120 minutes, respectively. The urine samples are collected and are mixed with 50% aqueous acetonitrile with the same volume. The mixture is centrifilged under 8,000 rpm. The supernatant is collected and is filtered by a 0.20 μm Millex-LG filter. The filtrate is analyzed by the HPLC. The fecal samples 120 minutes after the injection is collected, and is treated for homogenization by 20% of aqueous acetonitrile. The obtained mixture is rotated for about 5 minutes and then is centrifuged under 8,000 rpm. The supernatant is collected and is filtered by a 0.20 μm. Millex-LG filter. The filtrate is analyzed by the HPLC.

[4] = system: U87MG glioma; settings: SPECT/CT
Procedure: The preparation of ^99mTc-4P-RGD3 for the research of biodistribution includes incorporating ^99mTc-4P-RGD3 solution into physiological saline until the activity concentration is 10-30 mCi/mL. The preparation of ^99mTc-4P-RGD3 for tumor imaging includes incorporating ^99mTc-4P-RGD3 solution into physiological saline until the activity concentration is about 10 mCi/mL. During the experiments, each of the animal is injected with about 0.1 mL of the solution.
Biodistribution and tumor imaging are performed under the guidance of US National Institutes of Health animal experiments (1985, NIH 86-23, Laboratory Animal Care). U87MG cells are purchased from US ATCC (Manassas, Va.). Cell culture conditions: DMEM medium (non-essential amino acids sodium pyruvate) containing 10% of fetal bovine serum and 1% of penicillin and streptomycin. The cells are cultured under 37° C. with 5% of CO2. When the cells are grown to 90% confluence, they grow exponentially. The cells can be grown to a single layer, multiple layers or split layers. Female athymic nu/nu nude mice aged 4-5 weeks are used for the experiments, 5×10^6 of tumor cells are incorporated into 0.1 mL of physiological saline and are planted to shoulder subcutaneous of the mice under sterile conditions. About 4 weeks after planting, the tumor cells grow to 0.1-0.5 g for the use of biodistribution and imaging.

| Structure (SMILES) | tissue uptake at 1 h ([1]; Organ intake, Blood) [%ID/g] | tissue uptake at 1 h ([1]; Organ intake, Brain) [%ID/g] | tissue uptake at 1 h ([1]; Organ intake, Eye) [%ID/g] | tissue uptake at 1 h ([1]; Organ intake, Heart) [%ID/g] | tissue uptake at 1 h ([1]; Organ intake, Kidney) [%ID/g] | tissue uptake at 1 h ([1]; Organ intake, Liver) [%ID/g] | tissue uptake at 1 h ([1]; Organ intake, Lung) [%ID/g] | tissue uptake at 1 h ([1]; Organ intake, Muscle) [%ID/g] | tissue uptake at 1 h ([1]; Organ intake, Spleen) [%ID/g] | tissue uptake at 1 h ([1]; Tumor intake) [%ID/g] | Tumor intake ([2]; mouse, in vivo) [% ID/g] | other results |
| --- | --- | --- | --- | --- | --- | --- | --- | --- | --- | --- | --- | --- |
| N=C(N)NCCC[C@@H]1NC(=O)[C@H](CCCCNC(=O)[C@H]2O[C@@H](CNC(=O)COCCOCCn3cc(CNC(=O)CC[C@H](NC(=O)c4ccc(NN)nc4)C(=O)NCc4cn(CCOCCOCC(=O)NC[C@@H]5O[C@H](C(=O)NCCCC[C@@H]6NC(=O)[C@@H](Cc7ccccc7)NC(=O)[C@H](CC(=O)O)NC(=O)CNC(=O)[C@H](CCCNC(=N)N)NC6=O)[C@H](O)[C@H](O)[C@H]5O)nn4)nn3)[C@H](O)[C@@H](O)[C@H]2O)NC(=O)[C@@H](Cc2ccccc2)NC(=O)[C@H](CC(=O)O)NC(=O)CNC1=O [^99mTc-Galacto-RGD2, metal not drawn] | 0.56 ± 0.25 | 0.35 ± 0.28 | 0.81 ± 0.39 | 1.27 ± 0.61 | 11.7 ± 4.06 | 3.07 ± 2.14 | 2.93 ± 0.94 | 0.88 ± 0.34 | 1.99 ± 0.71 | 6.86 ± 1.33 | 6.86±1.33 | tissue uptake at 1 h ([1]; Organ intake, Small Intestine): 5.45 ± 1.47 %ID/g |
| N=C(N)NCCC[C@@H]1NC(=O)[C@H](CCCCNC(=O)CCOCCOCCOCCOCCNC(=O)CCC(CCC(=O)NCCOCCOCCOCCOCCC(=O)NCCCC[C@@H]2NC(=O)[C@@H](Cc3ccccc3)NC(=O)[C@H](CC(=O)O)NC(=O)CNC(=O)[C@H](CCCNC(=N)N)NC2=O)(CCC(=O)NCCOCCOCCOCCOCCC(=O)NCCCC[C@@H]2NC(=O)[C@@H](Cc3ccccc3)NC(=O)[C@H](CC(=O)O)NC(=O)CNC(=O)[C@H](CCCNC(=N)N)NC2=O)NC(=O)CCOCCOCCOCCOCCNC(=O)c2ccc(NN)nc2)NC(=O)[C@@H](Cc2ccccc2)NC(=O)[C@H](CC(=O)O)NC(=O)CNC1=O (stereo partly drawn) [^99mTc-4P-RGD3, metal not drawn] |  |  |  |  |  |  |  |  |  |  |  | Metabolites detected in the urine samples and the fecal samples (radio-HPLC) [3]: no metabolites; Radioactive accumulation in animal abdomen (especially in intestines) ([4]; compared with ^99mTc-3P-RGD2 and ^99mTc-Galacto-RGD2): the lowest; Tumor intake based on the SPECT quantization ([4]; glioma nude mice, about 37 MBq injected): about 7.34 ID/g; tissue uptake at 1 h ([1]; U87MG glioma nude mice, 60 minutes after tail vein injection, read-out: Organ intake, Blood): 0.53 ± 0.14 %ID/g; tissue uptake at 1 h ([1]; U87MG glioma nude mice, 60 minutes after tail vein injection, read-out: Organ intake, Brain): 0.14 ± 0.01 %ID/g; tissue uptake at 1 h ([1]; U87MG glioma nude mice, 60 minutes after tail vein injection, read-out: Organ intake, Eye): 0.46 ± 0.23 %ID/g; tissue uptake at 1 h ([1]; U87MG glioma nude mice, 60 minutes after tail vein injection, read-out: Organ intake, Heart): 0.56 ± 0.19 %ID/g; tissue uptake at 1 h ([1]; U87MG glioma nude mice, 60 minutes after tail vein injection, read-out: Organ intake, Kidney): 9.1 ± 2.31 %ID/g; tissue uptake at 1 h ([1]; U87MG glioma nude mice, 60 minutes after tail vein injection, read-out: Organ intake, Liver): 1.92 ± 0.62 %ID/g; tissue uptake at 1 h ([1]; U87MG glioma nude mice, 60 minutes after tail vein injection, read-out: Organ intake, Lung): 1.14 ± 0.41 %ID/g; tissue uptake at 1 h ([1]; U87MG glioma nude mice, 60 minutes after tail vein injection, read-out: Organ intake, Muscle): 0.35 ± 0.17 %ID/g; tissue uptake at 1 h ([1]; U87MG glioma nude mice, 60 minutes after tail vein injection, read-out: Organ intake, Small Intestine): 1.65 ± 0.37 %ID/g; tissue uptake at 1 h ([1]; U87MG glioma nude mice, 60 minutes after tail vein injection, read-out: Organ intake, Spleen): 1.33 ± 0.52 %ID/g; tissue uptake at 1 h ([1]; U87MG glioma nude mice, 60 minutes after tail vein injection, read-out: Tumor intake): 7.34 ± 1.66 %ID/g; Intake background in organs of the whole body (intestine, liver, lung, muscle, spleen, kidney) ([2]; 60 minutes after injection, compared with ^99mTc-3P-RGD2 and ^99mTc-Galacto-RGD2): significantly decreased; Tumor intake ([2]; U87MG glioma nude mice, 60 minutes after tail vein injection): 7.34±1.66 % ID/g |
| N=C(N)NCCC[C@@H]1NC(=O)[C@H](CCCCNC(=O)CCOCCOCCOCCOCCNC(=O)CC[C@H](NC(=O)CCOCCOCCOCCOCCNC(=O)c2ccc(NN)nc2)C(=O)NCCOCCOCCOCCOCCC(=O)NCCCC[C@@H]2NC(=O)[C@@H](Cc3ccccc3)NC(=O)[C@H](CC(=O)O)NC(=O)CNC(=O)[C@H](CCCNC(=N)N)NC2=O)NC(=O)[C@@H](Cc2ccccc2)NC(=O)[C@H](CC(=O)O)NC(=O)CNC1=O [^99mTc-3P-RGD2, metal not drawn] | 0.47 ± 0.06 | 0.17 ± 0.03 | 1.4 ± 0.13 | 1.67 ± 0.15 | 12.3 ± 1.09 | 2.92 ± 0.77 | 4.25 ± 0.63 | 1.12 ± 0.15 | 3.11 ± 0.18 | 7.24 ± 0.95 | 7.24±0.95 |  |
